The values below come from patent publication US20200239570A1 (CRESCENDO BIOLOGICS, published 2020).

In assay [1] the target is T1, recombinant human PD-1 Fc chimera (human, UniProt Q15116 25-167).
T1 construct: Bought (R&D 1086-PD); Labelled with europium cryptate in the PD-L2 HTRF assay; also called human PD-1 (R&D Systems cat no. 1086-PD); human PD-1-huFc; not shown: human Fc of the bought chimera
The assay can be described thus: BLI (Octet), PD-1-huFc on biosensor, 1:1 fit. As to the method:
Binding kinetics of clones to human PD-1-huFc were measured in real-time bio-layer interferometer based biosensor Octet (ForteBio). Recombinant human PD-1-huFc was either immobilized by standard amine coupling to amine reactive biosensors in 10 mM sodium acetate at pH 5.0 or capture by protein G biosensors (ForteBio). All the binding studies were performed in HBS-ET Octet kinetics buffer. Biosensors were always washed in Octet kinetics buffer in between different steps. A seven point, two-fold dilution series of each Humabody® VH was made with a top concentration in range 100-30 nM. The contact time for each of the association steps was varied between 180-300 seconds and the dissociation step was varied between 400-600 seconds. Kinetic association (kₐ) and dissociation (kd) rate constants were determined by processing and fitting the data to a 1:1 binding model using ForteBio Analysis software.
(In general: In BLI a coated tip is dipped into the sample, and binding shifts an interference pattern.)

Assay [2] addresses T2, human PD-1 expressed on cells (CHO human PD-1 cells) (human, UniProt Q15116 21-288).
T2 construct: CHO cells in the FMAT assays; Jurkat reporter cells in the reporter assay; primary CD4+ T cells in the mixed lymphocyte reaction; also called CHO TREX human PD1 cell line; CHO PD-1
The experiment in a line: FMAT epitope competition on CHO human PD-1 cells; competitor 2 nM 1.1-Strep tagged protein. On the procedure:
(§1) For the epitope competition assay reagents were prepared in FMAT assay buffer. […] Plates were incubated for a minimum of 1.5 hours at room temperature then fluorescence measured in the FL2 (502 nm-537 nm) and FL5 (677-800 nm) channels on the Mirrorball plate reader (TTP) following excitation at 488 nm and 640 nm. Data was expressed as a % of the total binding control (i.e. % control) after subtraction of the background signal determined from the non-specific binding control wells.

The target in assay [3] is T2, human PD-1 expressed on cells (CHO …). The experiment in a line: FMAT epitope competition on CHO human PD-1 cells; competitor 2 nM 2.1-Strep tagged protein. As to the method:
as §1

The target in assay [4] is T1, recombinant human PD-1 Fc chimera. The assay can be described thus: SPR (Biacore T200), PD-1-huFc amine-coupled to CM5, single cycle kinetics, 1:1 fit. On the procedure:
Binding kinetics of certain VH single domain antibodies binding to human PD-1-huFc were measured by surface plasmon resonance (SPR) technology using Biacore T200 instrument (GE Healthcare). Recombinant human PD-1-huFc was immobilized by standard amine coupling to CM5 sensorschip (GE Healthcare) using 0.01 mg/ml solution of antigen in 10 mM sodium acetate at pH 5.5. For the reference flow cell, a blank immobilisation was carried out. Single cycle kinetics assays were used to study the interaction, a five point, three-fold dilution series of each Humabody® was made with a top concentration of 30 nM. The binding kinetics were followed by flowing the Humabody® over the chip surface in HBS EP+ buffer at a flow rate of 30 μl/min. The contact time for each of the association steps was 180 seconds and the dissociation step was varied between 1200-3600 seconds. The data was fitted to a 1:1 binding model after double reference subtraction using the Biacore T200 Evaluation software.
In general terms: In SPR one partner is held on a chip, and binding of the other changes the refractive index at the surface.

T1 sequence (Q15116 25-167, change not shown): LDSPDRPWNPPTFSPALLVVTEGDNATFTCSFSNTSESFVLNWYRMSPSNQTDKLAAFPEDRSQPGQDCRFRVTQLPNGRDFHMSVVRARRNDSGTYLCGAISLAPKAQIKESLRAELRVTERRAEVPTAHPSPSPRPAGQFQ
T2 sequence (Q15116 21-288): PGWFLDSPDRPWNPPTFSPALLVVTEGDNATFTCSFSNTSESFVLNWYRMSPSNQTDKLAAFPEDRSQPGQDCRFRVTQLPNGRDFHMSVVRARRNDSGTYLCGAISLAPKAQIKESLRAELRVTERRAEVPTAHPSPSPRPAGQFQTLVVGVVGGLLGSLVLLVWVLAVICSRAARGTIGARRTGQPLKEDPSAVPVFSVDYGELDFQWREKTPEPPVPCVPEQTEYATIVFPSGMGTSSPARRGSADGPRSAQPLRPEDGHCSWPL

B1: Humabody VH 2.13 (VHH)
VHH: EVQLVESGGGVVRPGGSLRLSCAASGFTFDDYAMSWVRQAPGKGLEWVSGITWNRGSTGYADSVKGRFTISRDNAKNSLYLQMNSLRAEDTALYYCVRDKYSYAWSYDDFDIWGQGTMVTVSS
notes: human VH single domain antibody
Broadly, the Kd is a measure of binding affinity in units of concentration. Usually koff stands for the rate constant with which the complex falls apart. As usually defined, the kon is a measure of how fast the partners come together. Consider B1, for which, in assay [1], the equilibrium dissociation constant (Kd) amounted to 25 nM, the koff was found to be 0.035 s⁻¹ and the on-rate constant (kon) is 1.3e+06 M⁻¹ s⁻¹.

B2: Humabody VH 2.27 (VHH)
VHH: EVQLVESGGGVVRPGGSLRLSCAASGFTFDDYAMSWVRQAPGKGLEWVSGITWNAGSTGYADSVKDRFTISRDNAKNSLYLQMNSLRAEDTALYYCVRDKYSYAWSYDDFDIWGQGTMVTVSS
notes: as for B1
The IC50 is the concentration that gives 50% inhibition. Read a high IC50 as weaker potency in that assay. Regarding B2, the IC50 in assay [2] was 9 nM; in assay [3] it was 13 nM.

B3: Humabody VH 2.39 (VHH)
VHH: EVQLVESGGGVVRPGGSLRLSCAASGFTFDDYAESWVRQAPGKGLEWVSGITWNGGSTGYADSVKDRFTISRDNAKNSLYLQMNSLRAEDTALYYCVRDKYSYAWSYDGFDIWGQGTMVTVSS
notes: as for B1
In the case of B3, in assay [1], the Kd is 1.6 nM, the koff stood at 0.00059 s⁻¹ and the association rate constant (kon) came to 370000 M⁻¹ s⁻¹.

B4: Humabody VH 2.53 (VHH)
VHH: EVQLVESGGGVVRPGGSLRLSCAASGFTFDDYAMSWVRQAPGKGLEWVSGITWNGGSTGYADSVKDRFTISRDNAKNSLYLQMNSLRAEDTALYYCVRDKYSYAWSYDDFDIWGQGTMVTVSS
notes: as for B1
Regarding B4, in assay [1], the Kd came out at 16 nM, the koff came to 0.017 s⁻¹ and the kon turned out to be 1e+06 M⁻¹ s⁻¹. The molecule also registered a half-inhibitory concentration (IC50) in assay [2] of 7 nM. The molecule also showed a 50% inhibitory concentration (IC50) in assay [3] of 14 nM.

B5: Humabody VH 2.37 (VHH)
VHH: EVQLVESGGGVVRPGGSLRLSCAASGFTFDDYALSWVRQAPGKGLEWVSGITWNGGSTGYADSVKDRFTISRDNAKNSLYLQMNSLRAEDTALYYCVRDKYSYAWSYDGFDIWGQGTMVTVSS
notes: as for B1
For the molecule B5, in assay [1], the Kd was determined as 3.4 nM, the koff is 0.0015 s⁻¹ and the kon turned out to be 450000 M⁻¹ s⁻¹.

B6: Humabody VH 2.52 (VHH)
VHH: EVQLVESGGGVVRPGGSLRLSCAASGFTFDDYAMSWVRQAPGKGLEWVSGITWNGGSTGYADSVKDRFTISRDNAKNSLYLQMNSLRAEDTALYYCVRDKYSYAWSYDVFDIWGQGTMVTVSS
notes: as for B1
Regarding B6, in assay [1], the equilibrium dissociation constant (Kd) is 3.3 nM, the dissociation rate constant (koff) came out at 0.0022 s⁻¹ and the on-rate constant (kon) stood at 670000 M⁻¹ s⁻¹. The IC50 in assay [2] came to 6.5 nM. The molecule further had an IC50 in assay [3] of 21 nM.

B7: Humabody VH 1.26 (VHH)
VHH: EVQLVESGGGLVQPGRSLRLSCAASGFTFDDYAMHWVRQAPGKDLEWVSGISWNGGSMGYADSVKGRFTISRDNAKNSLYLQMNSLRAEDTALYYCVREKGPGLTGSTADYYGLDAWGQGTMVTVSS
notes: as for B1
Turning to B7, in assay [4], the Kd amounted to 7.94 nM, the koff was 0.00211 s⁻¹ and the association rate constant (kon) stood at 265000 M⁻¹ s⁻¹. The IC50 in assay [2] amounted to 8 nM.

B8: Humabody VH 1.37 (VHH)
VHH: EVQLVESGGGLVQPGRSLRLSCAASGFTFDDYAFHWVRQAPGKDLEWVSGISWNGGSMGYADSVKGRFTISRDNAKNSLYLQMNSLRAEDTALYYCVREKGPGLTGSTADYYGLDAWGQGTMVTVSS
notes: as for B1
Take B8: in assay [1], the dissociation constant Kd turned out to be 5.5 nM, the dissociation rate constant (koff) was determined as 0.0013 s⁻¹ and the kon is 240000 M⁻¹ s⁻¹. This molecule also displayed a half-inhibitory concentration (IC50) in assay [2] of 7.5 nM.

B9: Humabody VH 1.34 (VHH)
VHH: EVQLVESGGGLVQPGRSLRLSCAASGFTFDDYAMHWVRQAPGKDLEWVSGISWNGGSQGYADSVKGRFTISRDNAKNSLYLQMNSLRAEDTALYYCVREKGPGLTGSTADYYGLDAWGQGTMVTVSS
notes: as for B1
For B9, in assay [1], the Kd worked out at 3.6 nM, the koff was 0.0007 s⁻¹ and the on-rate (kon) stood at 190000 M⁻¹ s⁻¹. For the same molecule, the IC50 in assay [2] is 6.5 nM.

B10: Humabody VH 1.47 (VHH)
VHH: EVQLVESGGGLVQPGRSLRLSCAASGFTFDDYAFHWVRQAPGKDLEWVSGISWNSGSYGYADSVKGRFTISRDNAKNSLYLQMNSLRAEDTALYYCVREKGPGLTGSTADYYGLDAWGQGTMVTVSS
notes: as for B1
With B10, in assay [4], the Kd amounted to 10.2 nM, the koff was 0.00254 s⁻¹ and the on-rate (kon) was 248000 M⁻¹ s⁻¹.

B11: Humabody VH 1.50 (VHH)
VHH: EVQLVESGGGLVQPGRSLRLSCAASGFTFDDYAFHWVRQAPGKDLEWVSGISWNAGSQGYADSVKGRFTISRDNAKNSLYLQMNSLRAEDTALYYCVREKGPGLTGSTADYYGLDAWGQGTMVTVSS
notes: as for B1
For B11, in assay [4], the equilibrium dissociation constant (Kd) worked out at 14.3 nM, the koff stood at 0.00229 s⁻¹ and the on-rate (kon) is 160000 M⁻¹ s⁻¹.

B12: Humabody VH 1.33 (VHH)
VHH: EVQLVESGGGLVQPGRSLRLSCAASGFTFDDYAMHWVRQAPGKDLEWVSGISWNGGSYGYADSVKGRFTISRDNAKNSLYLQMNSLRAEDTALYYCVREKGPGLTGSTADYYGLDAWGQGTMVTVSS
notes: as for B1
As to B12, in assay [1], the dissociation constant Kd came out at 2 nM, the koff amounted to 0.00074 s⁻¹ and the kon was 370000 M⁻¹ s⁻¹. Besides, in assay [2], the IC50 turned out to be 2.5 nM.

B13: Humabody VH 1.48 (VHH)
VHH: EVQLVESGGGLVQPGRSLRLSCAASGFTFDDYALHWVRQAPGKDLEWVSGISWNSGSQGYADSVKGRFTISRDNAKNSLYLQMNSLRAEDTALYYCVREKGPGLTGSTADYYGLDAWGQGTMVTVSS
notes: as for B1
For B13, in assay [4], the Kd turned out to be 16.2 nM, the koff amounted to 0.00291 s⁻¹ and the kon was 180000 M⁻¹ s⁻¹.

B14: Humabody VH 1.40 (VHH)
VHH: EVQLVESGGGLVQPGRSLRLSCAASGFTFDDYALHWVRQAPGKDLEWVSGISWNGGSQGYADSVKGRFTISRDNAKNSLYLQMNSLRAEDTALYYCVREKGPGLTGSTADYYGLDAWGQGTMVTVSS
notes: as for B1
Turning to B14, in assay [4], the dissociation constant Kd was 5.98 nM, the koff was found to be 0.00145 s⁻¹ and the on-rate constant (kon) was found to be 243000 M⁻¹ s⁻¹.

B15: Humabody VH 1.44 (VHH)
VHH: EVQLVESGGGLVQPGRSLRLSCAASGFTFDDYALHWVRQAPGKDLEWVSGISWNSGSYGYADSVKGRFTISRDNAKNSLYLQMNSLRAEDTALYYCVREKGPGLTGSTADYYGLDAWGQGTMVTVSS
notes: as for B1
Turning to B15, in assay [4], the Kd amounted to 9.1 nM, the off-rate constant (koff) was 0.00204 s⁻¹ and the on-rate constant (kon) is 224000 M⁻¹ s⁻¹.
